Measurements reported in US20190142963A1 (INDIANA UNIVERSITY RESEARCH AND TECHNOLOGY, published 2019).
Non-standard residues stand in square brackets, D forms with d. No end group written: not given here.

T1: human Klotho β (human, UniProt Q86Z14 1-1044)
T1 sequence (looked up): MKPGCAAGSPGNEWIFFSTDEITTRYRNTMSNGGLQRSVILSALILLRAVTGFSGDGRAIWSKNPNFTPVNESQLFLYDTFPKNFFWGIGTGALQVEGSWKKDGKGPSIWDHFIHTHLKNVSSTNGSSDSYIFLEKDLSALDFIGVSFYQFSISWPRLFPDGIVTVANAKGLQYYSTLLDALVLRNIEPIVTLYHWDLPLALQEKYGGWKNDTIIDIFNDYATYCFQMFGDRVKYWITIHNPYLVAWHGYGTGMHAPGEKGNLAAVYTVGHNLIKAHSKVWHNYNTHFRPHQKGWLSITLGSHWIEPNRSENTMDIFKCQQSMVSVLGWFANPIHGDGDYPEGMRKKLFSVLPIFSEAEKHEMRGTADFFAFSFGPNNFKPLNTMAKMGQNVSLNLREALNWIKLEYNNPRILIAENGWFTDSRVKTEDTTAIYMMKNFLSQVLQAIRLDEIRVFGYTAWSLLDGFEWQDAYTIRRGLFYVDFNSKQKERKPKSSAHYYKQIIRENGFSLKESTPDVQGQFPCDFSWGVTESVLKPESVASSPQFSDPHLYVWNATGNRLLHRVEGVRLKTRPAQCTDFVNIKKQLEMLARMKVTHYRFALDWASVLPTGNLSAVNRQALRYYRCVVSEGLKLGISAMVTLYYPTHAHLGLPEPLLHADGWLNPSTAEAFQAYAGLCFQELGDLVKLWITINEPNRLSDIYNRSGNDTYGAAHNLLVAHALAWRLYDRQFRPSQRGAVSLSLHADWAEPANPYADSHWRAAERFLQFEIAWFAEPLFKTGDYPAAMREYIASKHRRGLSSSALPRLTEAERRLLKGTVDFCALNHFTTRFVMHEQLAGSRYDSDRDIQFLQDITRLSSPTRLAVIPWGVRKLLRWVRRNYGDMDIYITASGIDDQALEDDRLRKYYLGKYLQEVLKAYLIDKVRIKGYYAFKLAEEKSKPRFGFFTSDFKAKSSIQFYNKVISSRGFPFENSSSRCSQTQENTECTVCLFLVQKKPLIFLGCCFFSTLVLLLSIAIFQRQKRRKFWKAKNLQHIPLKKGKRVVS


Target: T1, human Klotho β
Test: cell-based or functional assay

| % maximal activity, Erk1/2 phosphorylation in 293T HEK hKLB cells (FIG. 9B) [%] | EC-50 of Erk1/2 phosphorylation in 293T HEK hKLB cells (FIG. 9B) [nM] | IC-50 of antagonism of FGF21 (pErk1/2, 293 HEK hKLB cells) [µM] | IC-50 of antagonistic activity (FIG. 8A) [nM] | IC-50 of antagonistic activity (FIG. 8B) [µM] | Molecule |
| --- | --- | --- | --- | --- | --- |
| 31 | 8.1 | – | – | – | FGF19 K194A (from UniProt O95750 25-216) (ligand) |
| – | – | 0.69 | – | – | FGF19 169-194 alanine mutant V187 (from UniProt O95750 191-216) (peptide) |
| – | – | > 2 | – | – | FGF19 169-194 alanine mutant S191 (from UniProt O95750 191-216) (peptide) |
| – | – | 0.43 | – | – | FGF19 169-194 alanine mutant E185 (from UniProt O95750 191-216) (peptide) |
| – | – | 2.97 | – | – | FGF19 169-194 alanine mutant F192 (from UniProt O95750 191-216) (peptide) |
| – | – | 0.21 | – | – | FGF19 169-194 alanine mutant P169 (from UniProt O95750 191-216) (peptide) |
| – | – | 2.17 | – | – | FGF19 169-194 alanine mutant L170 (from UniProt O95750 191-216) (peptide) |
| – | – | 1.4 | – | – | FGF19 169-194 alanine mutant T172 (from UniProt O95750 191-216) (peptide) |
| – | – | > 2 | – | – | FGF19 169-194 alanine mutant P190 (from UniProt O95750 191-216) (peptide) |
| – | – | 0.85 | – | – | FGF19 169-194 alanine mutant E193 (from UniProt O95750 169-194) (peptide) |
| – | – | 0.38 | – | – | FGF19 169-194 alanine mutant R188 (from UniProt O95750 191-216) (peptide) |
| – | – | – | 17.3 | – | FGF19 169-194 K194L (from UniProt O95750 191-216) (peptide) |
| – | – | > 2 | – | – | FGF19 169-194 alanine mutant S189 (from UniProt O95750 169-194) (peptide) |
| – | – | – | 22.3 | – | FGF19 169-194 K194S (from UniProt O95750 191-216) (peptide) |
| – | – | 0.52 | – | – | FGF19 169-194 alanine mutant T182 (from UniProt O95750 191-216) (peptide) |
| – | – | 0.2 | – | – | FGF19 169-194 alanine mutant L184 (from UniProt O95750 191-216) (peptide) |
| – | – | 0.15 | – | – | FGF19 169-194 alanine mutant M175 (from UniProt O95750 191-216) (peptide) |
| – | – | 0.27 | – | 0.05 | FGF19 169-194 (from UniProt O95750 169-194) (peptide) |
| – | – | – | 87.9 | – | FGF19 169-194 K194E (from UniProt O95750 191-216) (peptide) |
| – | – | 1.93 | – | – | FGF19 169-194 alanine mutant G179 (from UniProt O95750 191-216) (peptide) |
| – | – | 0.12 | – | – | FGF19 169-194 alanine mutant E171 (from UniProt O95750 191-216) (peptide) |
| – | – | 1.81 | – | – | FGF19 169-194 alanine mutant V181 (from UniProt O95750 191-216) (peptide) |
| – | – | 0.46 | – | – | FGF19 169-194 alanine mutant D173 (from UniProt O95750 191-216) (peptide) |
| – | – | 0.4 | – | – | FGF19 169-194 alanine mutant G183 (from UniProt O95750 191-216) (peptide) |
| – | – | 3.39 | – | – | FGF19 169-194 alanine mutant S174 (from UniProt O95750 191-216) (peptide) |

Target: T1, human Klotho β
Test: cell-based or functional assay
Remark: another data set of the same source

| % Activity vs C25 [%] | IC50 of antagonism of FGF21 (assay of Example 1) [nM] | Molecule |
| --- | --- | --- |
| 46 | 531 | PPDVGSSDPLSMVGP[dS]QGRSPSYAS-NH2 [FGF21 C25 d16] |
| 119 | 264 | PPDVGSSDPLSMVGPSQGRSPSYA[dS]-NH2 [FGF21 C25 d25] |
| 32.5 | 1980 | PPDVG[dS]SDPLSMVGPSQGRSPSYAS-NH2 [FGF21 C25 d6] |
| 54.2 | 877 | [dP]PDVGSSDPLSMVGPSQGRSPSYAS-NH2 [FGF21 C25 d1] |
| 2.3 | 33700 | PPDVGSSDPLSMVGPSQGR[dS]PSYAS-NH2 [FGF21 C25 d20] |
| 7.61 | 4720 | P[dP]DVGSSDPLSMVGPSQGRSPSYAS-NH2 [FGF21 C25 d2] |
| 32.3 | 1130 | PPDVGSSDPLSMVGPSQGRSPSY[dA]S-NH2 [FGF21 C25 d24] |
| 66.8 | 375 | PPDVGSSDPLSMVG[dP]SQGRSPSYAS-NH2 [FGF21 C25 d15] |
| 3.8 | 7800 | PPDVGSSDPLSMVGPSQGRS[dP]SYAS-NH2 [FGF21 C25 d21] |
| 15.6 | 6100 | PP[dD]VGSSDPLSMVGPSQGRSPSYAS-NH2 [FGF21 C25 d3] |
| 90.3 | 262 | PPDVGSSDPLSMVGPS[dQ]GRSPSYAS-NH2 [FGF21 C25 d17] |

Target: T1, human Klotho β
Test: cell-based or functional assay
Remark: another data set of the same source

| IC-50 of antagonism of FGF21 (pErk1/2, 293 HEK hKLB cells) [µM] | Molecule |
| --- | --- |
| 0.12 | PPDVGSSDPLSMVGASQGRSPSYAS [FGF21 25mer A15] |
| 0.13 | PPDVGSSDPLSMVAPSQGRSPSYAS [FGF21 25mer A14] |
| 0.09 | PPDVASSDPLSMVGPSQGRSPSYAS [FGF21 25mer A5] |
| 0.005 | PLETDSMDPFGLVTGLEAVRSPSFEA [FGF19 169-194 K194A] |
| 0.13 | PPDVGSSDPLSMVGPSAGRSPSYAS [FGF21 25mer A17] |
| 0.15 | PPDVGSSDPLAMVGPSQGRSPSYAS [FGF21 25mer A11] |
| 0.36 | PPDVGSADPLSMVGPSQGRSPSYAS [FGF21 25mer A7] |
| 0.11 | PPDVGSSDPLSMVGPAQGRSPSYAS [FGF21 25mer A16] |

Target: T1, human Klotho β
Test: cell-based or functional assay
Remark: another data set of the same source

| % max activity of antagonism of FGF21 (pErk1/2, 293 HEK hKLB cells) [%] | IC-50 of antagonism of FGF21 (pErk1/2, 293 HEK hKLB cells) [nM] | Molecule |
| --- | --- | --- |
| 93.9 | 134 | PPDVGSSDPLSMVGASQGRSPSYAS [FGF21 25mer A15] |
| 97.7 | 136 | PPDVGSSDPLSMVAPSQGRSPSYAS [FGF21 25mer A14] |
| 102 | 90.1 | PPDVASSDPLSMVGPSQGRSPSYAS [FGF21 25mer A5] |
| 99.7 | 139 | PPDVGSSDPLSMVGPSAGRSPSYAS [FGF21 25mer A17] |
| 98 | 102 | PPDVGSSDPLAMVGPSQGRSPSYAS [FGF21 25mer A11] |
| 94.5 | 359 | PPDVGSADPLSMVGPSQGRSPSYAS [FGF21 25mer A7] |
| 101 | 120 | PPDVGSSDPLSMVGPAQGRSPSYAS [FGF21 25mer A16] |
